From patent US20120065123A1 (published 2012)
One block for each binder: values may come before it. Where no end group is shown, it is not given here.

Columns and labels:
transferrin = target: T1, transferrin; experiment: SPR
T1 construct: Alexa 555 labelled on arrays, amine-coupled to the chip in SPR, on beads in mRNA display; also called TRF; transferring

AKT1 = AKT1 (Homo sapiens (Human), UniProt P31749 1-480); experiment: SPR
ANXA1 = target: T2, ANXA1 (human, UniProt P04083); experiment: Invitrogen Protoarray Human Protein Microarray v. 4.0; biotinylated synbody detected with fluorescently labelled streptavidin; fluorescence intensity above background
T2 construct: GST fusion, feature of the Invitrogen Protoarray Human Protein Microarray v; 4.0
T2 sequence (array feature, looked up): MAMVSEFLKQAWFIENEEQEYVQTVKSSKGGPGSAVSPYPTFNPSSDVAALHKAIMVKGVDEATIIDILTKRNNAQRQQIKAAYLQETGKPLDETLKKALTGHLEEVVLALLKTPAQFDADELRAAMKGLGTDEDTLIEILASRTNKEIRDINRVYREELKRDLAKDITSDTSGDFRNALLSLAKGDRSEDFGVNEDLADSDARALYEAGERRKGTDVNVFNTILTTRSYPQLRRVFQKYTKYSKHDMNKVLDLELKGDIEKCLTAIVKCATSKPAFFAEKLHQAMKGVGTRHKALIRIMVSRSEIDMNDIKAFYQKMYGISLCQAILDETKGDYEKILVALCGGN
Protocol: (§1) Application of the synbodies to the microarray was performed in accordance with manufacturer instructions: (see ProtoArray Human Protein Microarray, Invitrogen, Catalog no. PAH052401, Version B, 15 Dec. 2006, 25-0970, Users Manual.) After blocking the array with 1% BSA/PBS/0.1% Tween for 1 hour at 4C with gentle shaking, 120 μl of probing buffer (1×PBS, 5 mM mgCl2, 0.5 mM DTT, 0.05% Triton X-100, 5% glycerol, 1% BSA) with synbody was applied to the array. The prescribed cover slip was placed over the array and adjusted to remove air bubbles. The array was incubated in a 50 ml conical tube, printed side up, for 1.5 hours at 4C without shaking. The array was then removed from the conical tube inserted diagonally into the array chamber, kept on ice. 8 ml probing buffer was added to the chamber wall. The cover slip was removed and the array was incubated in probing buffer for 1 minute on ice. The probing buffer was decanted and drained. Two further washings were performed adding 8 ml probing buffer, incubating on ice for 1 minute, and decanting and draining. 5 nM fluorescently labeled streptavidin diluted in 6 ml probing buffer was incubated on the array for 30 minutes on ice in the dark, after which the solution was decanted and drained. Three wash steps were performed, each by adding 8 ml probing buffer, incubating for 1 minute on ice, decanting, and draining. The array was removed from the chamber, centrifuged at 800×g for 5 minutes at room temperature. The array was dried in the dark for 60 minutes at room temperature, after which it was scanned using a fluorescent microarray scanner and data was taken and analyzed.

ACTC = target: T3, ACTC (human, UniProt P68032); experiment: as above
T3 construct: GST fusion, feature of the Invitrogen Protoarray Human Protein Microarray v; 4.0
Protocol: as §1

ROCK2 = target: T4, ROCK2 (human, UniProt O75116); experiment: as above
T4 construct: GST fusion, feature of the Invitrogen Protoarray Human Protein Microarray v; 4.0
Protocol: as §1

PTK2 = target: T5, PTK2 (human, UniProt Q05397); experiment: as above
T5 construct: GST fusion, feature of the Invitrogen Protoarray Human Protein Microarray v; 4.0
Protocol: as §1

CHAF1B = target: T6, CHAF1B (human, UniProt Q13112); experiment: as above
T6 construct: GST fusion, feature of the Invitrogen Protoarray Human Protein Microarray v; 4.0
Protocol: as §1

LACRT = target: T7, LACRT (human, UniProt Q9GZZ8); experiment: as above
T7 construct: GST fusion, feature of the Invitrogen Protoarray Human Protein Microarray v; 4.0
T7 sequence (array feature, looked up): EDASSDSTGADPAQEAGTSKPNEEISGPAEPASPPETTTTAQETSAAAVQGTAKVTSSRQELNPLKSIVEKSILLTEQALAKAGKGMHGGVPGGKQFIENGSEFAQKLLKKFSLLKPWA
Protocol: as §1

[1] = target: T8, pooled human transferrin (Sigma), biotinylated (human, UniProt P02787 20-698, biotinylated at amines with NHS-LC-LC-Biotin); experiment: SPR Biacore A-100, purified peptide at several concentrations
T8 construct: Captured on Neutravidin on a CM5 chip (Biacore A-100)
Text: A Biacore A-100 Surface Plasmon Resonance (SPR) system was used to measure the binding response of each peptide to several different target proteins immobilized on a gold surface. The A-100 has four different flow cells and within each flow cell are five addressable spots. Therefore four different proteins and a negative control reference can be used per flow cell. Depending on the purpose of the assay, up to 16 different target proteins can be immobilized on a single SPR chip. The instrument is equipped to evaluate up to 10 384-well plates unattended and can process approximately four 384-well plates per day. Sensorgrams are collected from each immobilized protein, so a binding profile for each analyte versus each of the protein targets is generated for each injection. Target proteins were immobilized using a biotin capture approach in which a CM5 chip was activated using standard amine coupling chemistry and Neutravidin was covalently coupled to the chip. Each biotinylated protein was injected over a single spot and the amount of protein captured was measured.

[2] = target: T9, Tumor Necrosis Factor-alpha (TNF-α); experiment: SPR kinetic fits of sensorgrams
T9 construct: also called TNF-a

[3] = target: T9, Tumor Necrosis Factor-alpha (TNF-α); experiment: SPR equilibrium, Biacore A100, TNF-α captured on chip
Protocol: Point-mutant libraries were prepared in 96-well stock plates From the stock plate, peptides were diluted to 50 μM concentration in Biacore HBS-EP buffer (GE Healthcare, Piscataway, N.J.) containing 1 mg/ml carboxymethyl-dextran (Sigma-Aldrich, St. Louis, Mo.) to reduce non-specific binding to the CM-5 SPR chip surface. […] Spot 3 contained only immobilized neutravidin and served as a reference spot.
Purified point-mutant affinities were measured on the Biacore A100 using SPR equilibrium binding response across a series of peptide concentrations on an SPR chip with TNF-α captured as described above.

T9 sequence (P01375 77-233): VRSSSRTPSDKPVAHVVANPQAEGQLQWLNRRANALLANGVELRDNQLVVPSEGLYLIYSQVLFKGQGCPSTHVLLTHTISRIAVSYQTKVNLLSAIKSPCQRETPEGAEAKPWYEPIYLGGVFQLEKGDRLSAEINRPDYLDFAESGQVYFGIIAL
T5 sequence (Q05397 whole entry, the tested form may be a part): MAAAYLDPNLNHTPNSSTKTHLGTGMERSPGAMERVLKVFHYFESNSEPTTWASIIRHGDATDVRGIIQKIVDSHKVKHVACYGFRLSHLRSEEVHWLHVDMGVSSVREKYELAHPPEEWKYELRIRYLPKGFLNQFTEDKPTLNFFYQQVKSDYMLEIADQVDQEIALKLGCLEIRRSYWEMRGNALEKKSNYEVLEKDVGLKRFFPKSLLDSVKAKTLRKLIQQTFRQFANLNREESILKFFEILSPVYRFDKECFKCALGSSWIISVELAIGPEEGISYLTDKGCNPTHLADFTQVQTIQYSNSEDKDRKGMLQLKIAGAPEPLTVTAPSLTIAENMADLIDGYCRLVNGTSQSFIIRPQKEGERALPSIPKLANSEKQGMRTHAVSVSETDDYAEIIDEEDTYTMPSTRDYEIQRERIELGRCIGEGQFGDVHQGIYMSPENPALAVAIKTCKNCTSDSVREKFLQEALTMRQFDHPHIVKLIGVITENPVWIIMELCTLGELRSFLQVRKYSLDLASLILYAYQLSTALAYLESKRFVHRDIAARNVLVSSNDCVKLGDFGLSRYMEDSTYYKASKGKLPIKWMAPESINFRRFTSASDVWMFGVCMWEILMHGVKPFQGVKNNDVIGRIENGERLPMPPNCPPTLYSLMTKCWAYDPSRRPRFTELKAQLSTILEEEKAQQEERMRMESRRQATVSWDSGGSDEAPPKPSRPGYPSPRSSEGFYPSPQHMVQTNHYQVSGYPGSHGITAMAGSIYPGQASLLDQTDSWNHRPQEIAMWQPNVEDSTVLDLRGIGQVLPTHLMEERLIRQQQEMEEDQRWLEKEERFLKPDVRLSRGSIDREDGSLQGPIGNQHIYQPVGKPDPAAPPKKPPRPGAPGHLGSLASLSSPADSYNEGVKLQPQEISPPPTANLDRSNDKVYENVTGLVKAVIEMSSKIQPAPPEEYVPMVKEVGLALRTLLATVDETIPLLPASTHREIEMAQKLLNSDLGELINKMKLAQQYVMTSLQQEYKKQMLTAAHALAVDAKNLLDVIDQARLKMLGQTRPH
Sequence of AKT1 (P31749 whole entry): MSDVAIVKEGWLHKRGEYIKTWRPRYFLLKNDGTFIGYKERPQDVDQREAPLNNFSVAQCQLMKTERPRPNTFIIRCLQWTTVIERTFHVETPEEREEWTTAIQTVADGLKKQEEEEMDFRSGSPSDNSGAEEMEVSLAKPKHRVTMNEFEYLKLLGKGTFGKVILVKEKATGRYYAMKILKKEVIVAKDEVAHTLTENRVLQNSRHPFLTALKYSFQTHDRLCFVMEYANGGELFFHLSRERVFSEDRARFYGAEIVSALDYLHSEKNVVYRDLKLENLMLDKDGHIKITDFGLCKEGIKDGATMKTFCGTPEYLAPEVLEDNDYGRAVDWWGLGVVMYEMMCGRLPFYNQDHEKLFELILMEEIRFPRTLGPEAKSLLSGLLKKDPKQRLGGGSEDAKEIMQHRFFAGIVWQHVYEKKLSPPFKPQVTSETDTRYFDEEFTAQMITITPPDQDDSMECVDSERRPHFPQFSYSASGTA
T4 sequence (O75116 1-552 limits assumed): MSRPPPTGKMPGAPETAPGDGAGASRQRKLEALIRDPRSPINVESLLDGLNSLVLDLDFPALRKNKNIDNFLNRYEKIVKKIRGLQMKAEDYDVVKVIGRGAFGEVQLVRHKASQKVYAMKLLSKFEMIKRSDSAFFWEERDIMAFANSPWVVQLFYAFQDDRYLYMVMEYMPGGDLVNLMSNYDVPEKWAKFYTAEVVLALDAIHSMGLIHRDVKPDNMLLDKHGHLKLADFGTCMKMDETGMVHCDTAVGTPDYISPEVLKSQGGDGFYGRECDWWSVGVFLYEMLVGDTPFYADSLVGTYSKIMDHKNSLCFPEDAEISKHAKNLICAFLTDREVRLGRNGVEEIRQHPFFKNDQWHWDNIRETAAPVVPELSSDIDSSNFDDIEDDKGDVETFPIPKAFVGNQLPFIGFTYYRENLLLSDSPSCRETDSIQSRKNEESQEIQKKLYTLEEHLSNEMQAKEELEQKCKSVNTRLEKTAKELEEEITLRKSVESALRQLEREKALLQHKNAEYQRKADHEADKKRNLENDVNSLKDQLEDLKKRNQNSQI
T6 sequence (Q13112 whole entry, the tested form may be a part): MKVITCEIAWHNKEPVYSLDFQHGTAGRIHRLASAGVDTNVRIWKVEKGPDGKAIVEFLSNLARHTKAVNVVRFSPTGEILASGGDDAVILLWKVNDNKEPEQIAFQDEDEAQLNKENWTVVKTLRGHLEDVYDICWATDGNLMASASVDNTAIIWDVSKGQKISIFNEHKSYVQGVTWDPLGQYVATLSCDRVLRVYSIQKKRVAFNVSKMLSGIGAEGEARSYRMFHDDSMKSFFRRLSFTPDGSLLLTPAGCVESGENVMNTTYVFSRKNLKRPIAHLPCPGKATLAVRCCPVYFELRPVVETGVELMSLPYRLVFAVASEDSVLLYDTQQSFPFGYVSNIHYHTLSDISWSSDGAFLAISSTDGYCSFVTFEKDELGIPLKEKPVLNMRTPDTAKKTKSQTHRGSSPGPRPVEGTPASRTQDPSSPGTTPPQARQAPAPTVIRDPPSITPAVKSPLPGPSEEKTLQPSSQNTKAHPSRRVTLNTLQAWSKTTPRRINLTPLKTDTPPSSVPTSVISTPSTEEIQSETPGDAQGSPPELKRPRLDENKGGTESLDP
T8 sequence (P02787 20-698 limits assumed): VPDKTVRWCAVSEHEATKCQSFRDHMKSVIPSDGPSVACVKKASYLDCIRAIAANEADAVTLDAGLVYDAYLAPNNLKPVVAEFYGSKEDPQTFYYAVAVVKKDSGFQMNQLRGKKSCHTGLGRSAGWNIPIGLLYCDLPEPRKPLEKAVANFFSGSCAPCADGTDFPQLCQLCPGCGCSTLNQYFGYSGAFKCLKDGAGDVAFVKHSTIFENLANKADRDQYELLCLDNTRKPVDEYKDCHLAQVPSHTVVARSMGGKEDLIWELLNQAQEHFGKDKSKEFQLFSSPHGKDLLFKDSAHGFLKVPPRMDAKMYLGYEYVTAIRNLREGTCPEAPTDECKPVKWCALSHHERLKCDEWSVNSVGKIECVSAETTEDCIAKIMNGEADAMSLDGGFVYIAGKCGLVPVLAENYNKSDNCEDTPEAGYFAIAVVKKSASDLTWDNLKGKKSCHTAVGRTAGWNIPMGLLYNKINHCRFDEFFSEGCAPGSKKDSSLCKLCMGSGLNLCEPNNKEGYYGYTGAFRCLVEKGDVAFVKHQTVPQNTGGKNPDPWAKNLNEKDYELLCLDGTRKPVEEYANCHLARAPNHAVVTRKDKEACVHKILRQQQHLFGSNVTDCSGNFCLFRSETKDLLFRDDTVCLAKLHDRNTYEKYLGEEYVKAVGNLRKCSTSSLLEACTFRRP
T1 sequence (P02787 20-698): as the sequence (P02787 20-698 limits assumed) above

Kd (transferrin): ~141 nM
Kd (AKT1): ~1 nM
binding result (ANXA1): binds
binding result (ACTC): binds
binding result (ROCK2): no binding
binding result (PTK2): no binding
binding result (CHAF1B): binds
binding result (LACRT): no binding
B1: SYN23-26 (designed binder)
peptide 1: FRGWAHIFFGPHVIYRGGSG
peptide 2: AHKVVPQRQIRHAYNRYGSG
modifications: also: linker at chain A 20 at chain B 20 to a chain's C-terminus via Lys-Cys(biotin)
notes: Two 20-mers on the alpha and epsilon amines of a lysine, about 1 nm apart; thiol of the cysteine biotinylated for array detection; also called biotinylated anti-TRF synbody

Kd [1]: 78.9 µM
B2: TRF101 (peptide)
peptide: ARDLLIQKNSGQDVDHRGSC
notes: Screened unpurified, then resynthesised and HPLC purified for the KD

Binder: FERDPLMMPWSFLQSRQGSC [TNF1 lead peptide]
koff [2]: 1.6 s⁻¹
Kd [3]: 160 µM
